Reference: article PMC6221542

Target: H3K9me3 peptide NH2-…(me3)STGG-minipeg-K(5-fam)-NH2
Assay: fluorescence polarisation

Kd	Substance
210 nM	CBX1 chromodomain V22E/K25E/D59S (domain or fragment)
2780 nM	CBX1 chromodomain, wild type (domain or fragment)
320 nM	CBX1 chromodomain V22E/K25S/D59F (domain or fragment)
